The text below walks through data of US20040229265A1.

Data set [1] addresses CXCR4 (chemokine receptor CXCR-4) on PM1 cells. The experiment in a line: flow cytometry, PE-conjugated isotype control on PM1 cells (non-specific fluorescence). Background: Flow cytometry measures light scatter and fluorescence of single cells or particles in a stream.
The test system of data set [2] is Rev peptide (Rev34-50, RhdRev) (HIV-1). As to the kind of experiment: FP. The conditions noted are these: 10 nM tracer titrated with RNA, 85 mM NaCl, 2 mM KCl, 0.5 mM CaCl2, 0.5 mM MgCl2, 10 mM HEPES pH 7.5.
Data set [3] concerns Tat49-57 peptide (HIV-1). The conditions noted are these: CITED natural ligand affinity quoted for comparison, method not stated; cited from earlier work.
In data set [4] the test system is Rev34-50 peptide (HIV-1). To be noted: CITED natural ligand affinity quoted for comparison, method not stated; cited from earlier work.
In data set [5] the target is CXCR4 (chemokine receptor CXCR-4) on PM1 cells. The experiment in a line: flow cytometry, PE-12G5 alone on PM1 cells, 30 min at 4° C.
CXCR4 (chemokine receptor CXCR-4) on PM1 cells, sequence (P61073 whole entry): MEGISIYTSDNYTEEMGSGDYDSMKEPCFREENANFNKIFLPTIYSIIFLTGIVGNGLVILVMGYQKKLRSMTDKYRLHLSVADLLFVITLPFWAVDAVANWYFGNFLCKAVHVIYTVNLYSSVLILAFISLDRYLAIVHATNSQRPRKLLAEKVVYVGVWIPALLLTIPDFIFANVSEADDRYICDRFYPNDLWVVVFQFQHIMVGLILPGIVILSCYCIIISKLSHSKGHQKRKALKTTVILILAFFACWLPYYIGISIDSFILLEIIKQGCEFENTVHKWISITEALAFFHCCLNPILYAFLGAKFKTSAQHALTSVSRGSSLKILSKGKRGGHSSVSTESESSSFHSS

As for “PE-conjugated isotype control mAb (antibody)”, the MFI (median fluorescence intensity) in data set [1] is 30 MFI.

What is called Kd is a measure of binding affinity in units of concentration. On to TAR RNA, for which the Kd was 7.3 nM in data set [2] (table unit taken from text (7 nM)) and 12 nM in data set [3].

For RRE IIB RNA, the Kd was 16.6 nM in data set [2] (text gives 16 nM) and 40 nM in data set [4].

In data set [5], “anti-CXCR4 mAb, 12G5 (PharMingen, San Diego, Calif.) conjugated to phycoerithrine (PE) (antibody)” registered an MFI (median fluorescence intensity) of 451 MFI.
